Source: patent US20150267232A1, “IN VIVO AND IN VITRO CARBENE INSERTION AND NITRENE TRANSFER REACTIONS CATALYZED BY HEME ENZYMES” (California Institute of Technology, priority 2012, published 2015)

What was measured:
Assay type in all cases: biochemical
[1] = Small-scale anaerobic C—H amination with purified enzymes, azide 1
How it was run: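 Purified P450 or P411 enzymes (0.1-0.5% catalyst loading) in 400 μL reactions of 0.1 M potassium phosphate pH 8.0 with a catalase/glucose oxidase oxygen-depletion system were made anaerobic under argon, given 10 μL of 80 mM arylsulfonyl azide in DMSO, and stirred 24 h at room temperature. After HCl quench and acetonitrile addition, sultam was quantified by HPLC at 220 nm against an internal standard; enantioselectivity was measured by chiral HPLC.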

[2] = Small-scale anaerobic C—H amination with purified enzymes, azide 6; conditions: 0.1% loading; azide 6
Description: (§1) Hemin also was capable of catalyzing this reaction when reduced with dithionite (Table 13).
(§2) Small scale reactions containing either 0.1% loading of ABC-CIS or ABC-T268A or 1% loading of hemin with azides 1, 4, or 6 according to standard procedures.
(§3) Small-scale reactions (400 μL) were conducted in 2 mL crimp vials (Agilent Technologies, San Diego, Calif.) containing buffer (0.1 M potassium phosphate pH 8.0), enzyme (0.1-0.5% catalyst loading) and oxygen depletion system (10× stock solution containing 14,000 U/mL catalase, 1,000 U/mL glucose oxidase dissolved in 0.1 M KPi pH 8.0). Enzyme (P450 or P411) solution and oxygen depletion mixture were added to the vial with a small stir bar before crimp-sealing. Portions of phosphate buffer (190 μL, 0.1 M, pH=8.0), glucose (40 μL, 250 mM) and NADPH (40 μL, 20 mM), or multiples thereof, were combined in a larger crimp sealed vial and degassed by sparging with argon for at least 5 min. In the meantime, the headspace of the sealed 2 mL reaction vial with the P450 solution was made anaerobic by flushing argon over the protein solution (with no bubbling). The buffer/reductant/glucose solution (270 μL) was syringed into the reaction vial with continuous argon purge of the vial headspace. An arylsulfonyl azide solution in DMSO (10 μL, 80 mM) was added to the reaction vial via a glass syringe, and the reaction was left stirring for 24 h at room temperature under positive argon pressure. Final concentrations of the reagents were typically: 2 mM arylsulfonyl azide, 2 mM NADPH, 25 mM glucose, 2 or 10 μM P450. Reactions were quenched by adding 30 μL 3 M HCl under argon. To the vials were then added acetonitrile (430 uL) and internal standard (o-toluenesulfonamide 10 mM in 50% acetonitrile 50% water, 1 mM final concentration). […] A portion (20 μL) of the supernatant was then analyzed by HPLC. […] Sultam formation was quantified comparison of integrated peak areas of internal standard and sultam at 220 nm to a calibration curve made using synthetically produced sultam and internal standard.

[3] = Small-scale anaerobic C—H amination with purified enzymes, azide 4; conditions: 0.1% loading; azide 4
Description: as §1, §2, §3

[4] = CS heme-Na2S2O4 + NADPH (heme domain)
[5] = Complete system (CS), holoenzyme

B1: ABC-T268A: P450BM3 variant: T268A, C400S (protein, listed as Bacillus megaterium)
chain: TIKEMPQPKTFGELKNLPLLNTDKPVQALMKIADELGEIFKFEAPGRVTRYLSSQRLIKEACDESRFDKNLSQALKFVRDFAGDGLFTSWTHEKNWKKAHNILLPSFSQQAMKGYHAMMVDIAVQLVQKWERLNADEHIEVPEDMTRLTLDTIGLCGFNYRFNSFYRDQPHPFITSMVRALDEAMNKLQRANPDDPAYDENKRQFQEDIKVMNDLVDKIIADRKASGEQSDDLLTHMLNGKDPETGEPLDDENIRYQIITFLIAGHEATSGLLSFALYFLVKNPHVLQKAAEEAARVLVDPVPSYKQVKQLKYVGMVLNEALRLWPTAPAFSLYAKEDTVLGGEYPLEKGDELMVLIPQLHRDKTIWGDDVEEFRPERFENPSAIPQHAFKPFGNGQRASIGQQFALHEATLVLGMMLKHFDFEDHTNYELDIKETLTLKPEGFVVKAKSKKIPLGGIPSPSTEQSAKKVRKKAENAHNTPLLVLYGSNMGTAEGTARDLADIAMSKGFAPQVATLDSHAGNLPREGAVLIVTASYNGHPPDNAKQFVDWLDQASADEVKGVRYSVFGCGDKNWATTYQKVPAFIDETLAAKGAENIADRGEADASDDFEGTYEEWREHMWSDVAAYFNLDIENSEDNKSTLSLQFVDSAADMPLAKMHGAFSTNVVASKELQQPGSARSTRHLEIELPKEASYQEGDHLGVIPRNYEGIVNRVTARFGLDASQQIRLEAEEEKLAHLPLAKTVSVEELLQYVELQDPVTRTQLRAMAAKTVCPPHKVELEALLEKQAYKEQVLAKRLTMLELLEKYPACEMKFSEFIALLPSIRPRYYSISSSPRVDEKQASITVSVVSGEAWSGYGEYKGIASNYLAELQEGDTITCFISTPQSEFTLPKDPETPLIMVGPGTGVAPFRGFVQARKQLKEQGQSLGEAHLYFGCRSPHEDYLYQEELENAQSEGIITLHTAFSRMPNQPKTYVQHVMEQDGKKLIELLDQGAHFYICGDGSQMAPAVEATLMKSYADVHQVSEADARLWLQQLEEKGRYAKDVWAG
modifications: cytochrome P450NADPH-P-450 reductase precursor, cytochrome P450 (BM3), CYP102A1
notes: P450BM3 variant: T268A, C400S
- Product (3) ([1]; 0.1% loading, azide 1, TTN): 135
- TTN ([1]; 0.1 mol % catalyst loading (2 μM), 2 mM azide 1, 2 mM NADPH, benzosultam 3): 120
- % ee ([1]; 0.1 mol % catalyst loading, (S−R)/(S+R), benzosultam 3): 58%
- % activity ([1]; Boiled P450heme): 9.1%
- % ee ([1]; Boiled P450heme): 3%
- TTN ([1]; Boiled P450heme): 10
- % activity ([1]; Boiled P450holo): 30%
- % ee ([1]; Boiled P450holo): 1%
- TTN ([1]; Boiled P450holo): 33
- % activity ([1]; CS + CO): 4.4%
- TTN ([1]; CS + CO): 5
- % activity ([1]; CS aerobic): 9.1%
- % ee ([1]; CS aerobic): 60%
- TTN ([1]; CS aerobic): 10
- % activity ([1]; CS heme): 145%
- % ee ([1]; CS heme): 91%
- TTN ([1]; CS heme (heme domain, 2 mM Na2S2O4)): 160
- % activity ([1]; CS heme + CO): 0%
- TTN ([1]; CS heme + CO): 0
- % activity ([1]; CS heme aerobic): 0%
- TTN ([1]; CS heme aerobic): 0
- % activity [1, 4]: 3.6%
- TTN [1, 4]: 4
- % ee ([1]; CS-NADPH + Na2S2O4): 44%
- TTN ([1]; CS-NADPH + Na2S2O4): 130
- % activity ([1]; CS-NADPH + Na2S2O4, residual activity (CS = 100%)): 120%
- % ee [1, 5]: 38%
- TTN [1, 5]: 110
- activity with reductant NADPH ([1]; NADPH (2 mM), 0.1 mol % loading, azide 1): 110
- activity with reductant Dithionite ([1]; dithionite (2 mM), 0.1 mol % loading, azide 1): 110
- Product (7) [2]: 27
- Product (5) [3]: 22
